Molecular target: human IL-17A (human) (UniProt Q16552)
Assay: BLI Octet Red 96; Fab on anti-FABCH1 sensors, IL-17A 30 µg/ml as analyte, 1:1 model

Chain of human IL-17A (human) (Q16552 20-155 limits assumed): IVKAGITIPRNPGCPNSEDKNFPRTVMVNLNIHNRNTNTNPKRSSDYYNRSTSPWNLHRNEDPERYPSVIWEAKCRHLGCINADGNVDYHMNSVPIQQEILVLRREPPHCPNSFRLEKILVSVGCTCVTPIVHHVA

koff: < 2.27e-06 s⁻¹
B1: 3VHHVK4B11 Fab (Fab, part only; not given: Light chain VK4B11, tags, not shown: small tags and cut ends)
heavy: QVQLQQSGGGSVQAGGSLRLSCAASGGTFATSPMGWLRQAPGKEREFVAAISPSGGDRIYDDSVKGRFTISRDNAGYFIYLQMNSLKPEDTARYYCAVRRRFDGTSYYTGDYDSWGQGTLVTVSS

Source: patent US20210332120A1
